{"source": "the DeepSol protein solubility set"}
{"test": "soluble on expression in E. coli; label from the status in PepcDB or PDB records"}
{"sequence": "SNAMKDVLAEYASRIVSAEEAVKHIKNGERVALSHAAGVPQSCVDALVQQADLFQNVEIYHMLCLGEGKYMAPEMAPHFRHITNFVGGNSRKAVEENRADFIPVFFYEVPSMIRKDILHIDVAIVQLSMPDENGYCSFGVSCDYSKPAAESAHLVIGEINRQMPYVHGDNLIHISKLDYIVMADYPIYSLAKPKIGEVEEAIGRNCAELIEDGATLQLGIGAIPDAALLFLKDKKDLGIHTEMFSDGVVELVRSGVITGKKKTLHPGKMVATFLMGSEDVYHFIDKNPDVELYPVDYVNDPRVIAQNDNMVSINSCIEIDLMGQVVSECIGSKQFSGTGGQVDYVRGAAWSKNGKSIMAIPSTAKNGTASRIVPIIAEGAAVTTLRNEVDYVVTEYGIAQLKGKSLRQRAEALIAIAHPDFREELTKHLRKRFG", "soluble on expression in E. coli": "soluble"}
{"sequence": "IVGGYTCQENSVPYQVSLNSGYHFCGGSLINDQWVVSAAHCYKSRIQVRLGEHNINVLEGDEQFVNAAKIIKHPNFDRKTLNNNIMLIKLSSPVKLNARVATVALPSSCAPAGTQCLISGWGNTLSSGVNEPDLLQCLDAPLLPQADCEASYPGKITDNMVCVGFLEGGKDSCQGDSGGPVVCNGELQGIVSWGYGCALPDNPGVYTKVCNYVDWIQDTIAAN", "soluble on expression in E. coli": "soluble"}
{"sequence": "MGSDKIHHHHHHMVNEQRVLDTFLELVQIDSESKEEAQICAHLKETFTALGCDVFEDDASSKTEHKGNNLIITLPATKDGVDKIYFTSHMDTVFPGQGIKPIIEDGYVKTDGTTILGADDKTGLASLIELVHVLNETNQPHGKIQFVITVGEESGLVGAMVLDPSKIDADYGFALDSDGKVGDIITAAPTQAKVNAKIYGKTAHAGVAPEKGISAITIAAKAIAKMPLGRIDEETTANIGRFSGGGPSTNIVCDYVEIFAEARSLVAPKMEAQTAKMKAAFEEVAAEFGGRAEVEVKVMYPGFKFEDGDQVVEVAKAAITQLGRTPRLLHSGGGSDANVIAGFGIPTVNLAVGYEDIHTTNEKMPIEELVKTAELCVTLVDYITNK", "soluble on expression in E. coli": "not soluble"}
{"sequence": "MQRYLWQQADGKRHVYDTARHRVQAGRPFTALCGETVTPQTERGDLTAGLWFDGECPVCTIALAKALGWPVREISDLAHRFDWSPALITRLAEVLHCSFGEVVELTGARMVDA", "soluble on expression in E. coli": "not soluble"}
{"sequence": "SAAAMAEQEGSKGSARNRGGVQRVEGKLRASVEKGDYYEAHQMYRTLFFRYMSQSKHIEARELMYSGALLFFSHSQQNSAADLSMLVLESLEKHEVKVTEELLENLAKLFSLMDPNSPERVAFVSRALKWSSGGSGKFGHQKLHQFLAITLWKEQNYYESRYHFLHSSDGEGCANMLVEYSSTRGYRSEVDMFVAQAVLQFLCLKNKTSASVVFTTYTQKHPSIERGPPFVQPLLNFIWFLLLAVEGGKLTVFTVLCEQYQPSLKRDPMYNEYLDRIGQLFFGLPPKQSSSYGGLLGNLLNSLMGSGEDDDVEDGQEDSSPIELD", "soluble on expression in E. coli": "soluble"}
{"sequence": "MGSDKIHHHHHHMKIQSLFFTLYGDYVKDSGGTISSKSLIVIFKEFGFSEGAIRAGLHRMKKAGLIVGIKGENRKVSYKLSEKGMLRLLEGTRRVYEKVRRRWDNKWRIVVYNIPENNRELRDKLRRELKWLGFGMLAQSTWISPNPIEDTLKNFINDHYGSSNGIQVDIFVANYLGEPKGLVEKCWNLSEVEQAYRAFLEKWTGVLEKVSSLKSNEAFVTRILLVHEYRKFLNIDPDLPEDLLPPNWIGYTAYDLFMKLREELTPKANEFFYKVYEP", "soluble on expression in E. coli": "not soluble"}
{"sequence": "MGSSHHHHHHSSASMTGGQQMGRTLYDDDDKDRWGSELETGRQKARGAATRARQKQRASLETMDKAVQRFRLQNPDLDSEALLTLPLLQLVQKLQSGELSPEAVFFTYLGKAWEVNKGTNCVTSYLTDCETQLSQAPRQGLLYGVPVSLKECFSYKGHDSTLGLSLNEGMPSESDCVVVQVLKLQGAVPFVHTNVPQSMFSYDCSNPLFGQTMNPWKSSKSPGGSSGGEGALIGSGGSPLGLGTDIGGSIRFPSAFCGICGLKPTGNRLSKSGLKGCVYGQTAVQLSLGPMARDVESLALCLKALLCEHLFTLDPTVPPLPFREEVYRSSRPLRVGYYETDNYTMPSPAMRRALIETKQRLEAAGHTLIPFLPNNIPYALEVLSTGGLFSDGGRSFLQNFKGDFVDPCLGDLILILRLPSWFKRLLSLLLKPLFPRLAAFLNNMRPRSAEKLWKLQHEIEMYRQSVIAQWKAMNLDVLLTPMLGPALDLNTPGRATGAVSYTMLYNCLDFPAGVVPVTTVTAEDDAQMELYKGYFGDIWDIILKKAMKNSVGLPVAVQCVALPWQEELCLRFMREVEQLMTPQKQPS", "soluble on expression in E. coli": "soluble"}
{"sequence": "MLNNAMSVVILAAGKGTRMYSDLPKVLHTLAGKAMVQHVIDAANELGAAHVHLVYGHGGDLLKQALKDDNLNWVLQAEQLGTGHAMQQAAPFFADDEDILMLYGDVPLISVETLQRLRDAKPQGGIGLLTVKLDDPTGYGRITRENGKVTGIVEHKDATDEQRQIQEINTGILIANGADMKRWLAKLTNNNAQGEYYITDIIALAYQEGREIVAVHPQRLSEVEGVNNRLQLSRLERVYQSEQAEKLLLAGVMLRDPARFDLRGTLTHGRDVEIDTNVIIEGNVTLGHRVKIGTGCVIKNSVIGDDCEISPYTVVEDANLAAACTIGPFARLRPGAELLEGAHVGNFVEMKKARLGKGSKAGHLTYLGDAEIGDNVNIGAGTITCNYDGANKFKTIIGDDVFVGSDTQLVAPVTVGKGATIAAGTTVTRNVGENALAISRVPQTQKEGWRRPVKKK", "soluble on expression in E. coli": "soluble"}
{"sequence": "MGSDKIHHHHHHMGGLGARHLYGSALGEHLVFKGGTSLSKAYQVIQRFSEDVDLTYDIRAIAPDLVGDDGEALPETRSEEKRWSSEVRKRLPNWVEGSVQPIIADALAAEALAAAIRVEGEKLFIDYAAATAGSGYVAPSVILEFGARSTGEPASLRDIACDASGLIEGVTFPTARPRVMHAERTFWEKATAIHVFCLQERLRGDRFARHWHDVARLDETGFTPSAFADRDLANAVARHKTMFFAEKAPDRTPIDYAAAVNGGLRLVPAGDGLKALEEDYARMVDDGLLLEDAEPFEALMARCADIAERANYIRE", "soluble on expression in E. coli": "not soluble"}
{"sequence": "MSLAMRFMLLLMLVGMAHGALANPLRVCVGDVNVWPPFTYWQGSSAQEKAESLTGSATTLVLEALKKQEIEYQLHFMPWARVQQELAQATGRCDLTWDASYRAERAEYSYFSVPLYTIQLGYFTLPENSKDLNLATDSDVLCGVNGFNYQNFALPREPSLTLNSVQQALNMLQKERCDWFVSEIEPIYGGIMLGLYQLDRPIQHHFLGKTKEYHVQVRRSLPNAMPLLNGLNEYILQAQSSGHAQAVFDRFLSITQTEGHHHHHH", "soluble on expression in E. coli": "soluble"}
{"sequence": "SKDLSVSLQANFTYNKNKMVYVDEPEYPTIWKSETGKPYSRITGYIAEGLFKSQEEIDNSPAQNLGSTPKVGDIKYRDLNGDGIIDSDDQTMISKYGSTPRLQYGFGGTVNYKKFDFGVFFSGSALRSIMTNGIDPFQEGIAVGNRNVLKYIADNYWSEEKQNWDAKYPRLGLLATDVANNTVNSSYWLRNGSFLRLKNVEVGYKIPYGRIFVSAANLFTFSPFDLWDPELSSWNSYPMQKTVNVGIQLQF", "soluble on expression in E. coli": "not soluble"}
{"sequence": "MVNTRPPKIDELLKIDPYLHDFQDEISRRYGVFLDYQRRIEECGGMEEFTSSYKQFGLNVQPDNSVKGLEWAPAAEKLALIGDFNNWDQNANVYKKEEHGKWSITVPAKEDGSCPIPHNSVIKIAVSRHGATHFKLSPWATFVTCPNPKETVIYHQNFWNPPEKYQLKEARPARPASLRIYEAHVGISSSEGKINTYREFADDVLPRIQKQGYNAIQLMAVMEHVYYASFGYQVSNFFAVSSRCGTPEDLKYLVDKAHSLGIFMLLDVVHSHASKNVEDGLNQWDGSNGGYFHDNARGYHNLWDSRLFDYTQTETLRFLLSNVRWWVEEYGFDGFRFDGVSSMIYHSHGMNDDFCGGYPMYFGLNADTDSLVYLMLANDFLHKKYPFMITIAEEVSGMPGICRPVEEGGQGFDYRLAMALPDMWIKILKHTSDEDWKIDDIVFNLENRRYAEKHVAYAESHDQALVGDKTIAFWLMDKEMYDFMSTDSPLTPIIDRGLSLHKLIRLITIGLGGEAWLNFIGNEFGHPEWLDFPRVGNGESFHYARRQFNLVDAEYLRYKFLNNWDREMMLLEERTGFLHKGYAYTSWKHDGDKTIVFERGGLVFVINLHPTKSFADYSIGVNTPGRYRIALNSDESKFGGHNRIDNSIKFHTTDDGYAGRRHRLQVYITCRTAIVLEKEDD", "soluble on expression in E. coli": "not soluble"}
{"sequence": "MNEMTLLYSPSCWVPGKNRDEVMNDFFAGIKNAFEALKNDEKIPRKENVAYGMEENQKVDIWGDASDKLLIFIHGGYWAAGTRKDCLTPARCALNNEYAFASVGYGLSTEGRTLTETVEDVVNGVDFILKLYPNVSNVLVGGHSAGAHLAMNAVARLRNPRIRGLLLFSGCYFLEELIGTEIGTDINLTTDQAKLNSCDLSKLDGLKLDSLVILGLQEAPKLIEQNRDFVAQQGQSRIEEFPNSGHYTIMTNLLNHTSGEYLAMEKFLKNF", "soluble on expression in E. coli": "not soluble"}
{"sequence": "MSLLPTILTVDDEEMIRDLMVTALSREGYRCFQAGSAEEARSVLQNNKIDLAILDIMMPGLSGDDFLKELKVLSPETVVLMVTALSDTETAMKCIHLGAYDYILKPFDIDRVLLTIHNALEKQRLLAENREYQANLEKKVDEQTRQIRMAMEDLNLAYNHTLTALVRALDAREKETGSHSERVMTYTLLLGEAMGVPEKDLSVMARGALLHDIGKVGISDNILLKPAKLDEREWMEMMRHPQLGYEILSGIKFLKGPAEIVFAHHERFDGSGYPKGLSRSGIPLGARIFSLVDTLDAMTSDRPYRKALPFEAVTSEVRRCRGTQFDPEIVDIFLSIPRERWEVVGKRHFIVGEGHHHHHH", "soluble on expression in E. coli": "not soluble"}
{"sequence": "MSRAVSRLIEACGRLSITQRSQMHFFRPPPTSSILPPLVTPSTTIVEKSIELPSLENPQQIYTFPTLHRSPIVAPGAILTEILEKLAPTAEKGFLIAPGTPNKSPMWLSPRLLTIRRKKMKKHKRRRRYDRDFFKYQKYHREKKLKSEREFQKRMKSLLTELEAFNPEKYVKDTIRMANKEWQDELAPTGRKLYPHWSRFMSLEQLYGLPKSEYIDKRAGLPTPEEAEQIKALKEKYAKLYRKK", "soluble on expression in E. coli": "soluble"}
{"sequence": "MGHHHHHHSHMANSMANSMNNRTRLALIICNTEFDHLPPRNGADFDITGMKELLEGLDYSVDVEENLTARDMESALRAFATRPEHKSSDSTFLVLMSHGILEGICGTVHDEKKPDVLLYDTIFQIFNNRNCLSLKDKPKVIIVQACRGANRGELWVRDSPASLEVASSQSSENLEEDAVYKTHVEKDFIAFCSSTPHNVSWRDSTMGSIFITQLITCFQKYSWCCHLEEVFRKVQQSFETPRAKAQMPTIERLSMTRYFYLFPGN", "soluble on expression in E. coli": "not soluble"}
{"sequence": "MGHVDREDLLNVIRHELRLEDDDGPGLCSRLLLNPDRKCRAGGLPLDFRLKNGDLMDDGDAGFDDIYEIPLYEEPIHTRTLINDSLALRTAEKIKEEGRRDNFYTGPLDELFVKQEVNWPPKTPISTEKSAIERYLEENSANLNNPLGEYSKFAATTTDPSRQIEIIIPMSCDEEIGFKTLKIEVLTTARIREVIGYCLLQYYLTFDSYLPGEVDDYQFYLAEEDGEIEHELPPLDSSKLVGQVGFTCLGLVSRIKKNGNSRQKRAVAVWFVDKDQYVIEVDNMEKPLRWLRDEAFRLREETVKEREPLFQGLLDIKEYYMEAVDNFDVKLDLEASISSARSLEFVMIRKNSSRAGFHPRGGRYGRQMSAMLTLKMPNSPIAAGPMTPLPTVMEESPAVAGTSNGFGFPKAESCGAIASTPGVTWNDDGGQLSSFIVQRIHKFKPKWKANLSTVV", "soluble on expression in E. coli": "not soluble"}
{"sequence": "MSEQQVQELEKKWYALQVEPGKENEAKENLLKVLELEGLKDLVDEVIVPAEEKVVIRAQGKEKYRLSLKGNARDISVLGKKGVTTFRIENGEVKVVESVEGDTCVNAPPISKPGQKITCKENKTEAKIVLDNKIFPGYILIKAHMNDKLLMAIEKTPHVFRPVMVGGKPVPLKEEEVQNILNQIKRGVKPSKVEFEKGDQVRVIEGPFMNFTGTVEEVHPEKRKLTVMISIFGRMTPVELDFDQVEKI", "soluble on expression in E. coli": "soluble"}
{"sequence": "MELSPVFARRLYLALLVESLERPNVPKLIEKTGWPRRTIQDVIKAMPGIGIELNFVQDGRRHNDGYYQLSDWGPFDSQWVTERKKDIAASLGFCA", "soluble on expression in E. coli": "not soluble"}
